This is an account of results in publication PMC5758567 (2018).

In assay [1] the target is T1, PDE6 (lower-affinity site) (Bos taurus, UniProt P11541).
T1 chain 1: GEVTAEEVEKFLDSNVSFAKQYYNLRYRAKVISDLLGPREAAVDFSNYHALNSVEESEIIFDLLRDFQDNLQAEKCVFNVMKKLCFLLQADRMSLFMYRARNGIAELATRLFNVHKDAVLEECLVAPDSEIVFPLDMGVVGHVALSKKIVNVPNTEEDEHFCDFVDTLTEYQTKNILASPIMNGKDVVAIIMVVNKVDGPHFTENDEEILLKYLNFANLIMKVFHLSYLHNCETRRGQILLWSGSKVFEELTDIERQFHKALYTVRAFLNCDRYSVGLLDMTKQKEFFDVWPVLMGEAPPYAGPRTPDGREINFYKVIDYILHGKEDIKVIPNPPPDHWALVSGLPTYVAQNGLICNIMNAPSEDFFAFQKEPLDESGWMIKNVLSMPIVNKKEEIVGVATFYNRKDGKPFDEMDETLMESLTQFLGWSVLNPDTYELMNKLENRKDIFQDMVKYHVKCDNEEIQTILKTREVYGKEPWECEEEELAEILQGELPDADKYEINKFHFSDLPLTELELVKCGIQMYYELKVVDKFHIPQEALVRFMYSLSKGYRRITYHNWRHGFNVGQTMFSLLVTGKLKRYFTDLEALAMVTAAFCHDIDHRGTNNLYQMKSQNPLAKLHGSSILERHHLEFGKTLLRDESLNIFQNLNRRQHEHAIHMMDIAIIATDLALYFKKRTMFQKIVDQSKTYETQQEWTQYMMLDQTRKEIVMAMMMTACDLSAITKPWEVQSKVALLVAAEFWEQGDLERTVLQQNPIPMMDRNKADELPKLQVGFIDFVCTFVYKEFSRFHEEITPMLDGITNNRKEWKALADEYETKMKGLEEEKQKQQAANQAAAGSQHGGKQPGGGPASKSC
T1 chain 2: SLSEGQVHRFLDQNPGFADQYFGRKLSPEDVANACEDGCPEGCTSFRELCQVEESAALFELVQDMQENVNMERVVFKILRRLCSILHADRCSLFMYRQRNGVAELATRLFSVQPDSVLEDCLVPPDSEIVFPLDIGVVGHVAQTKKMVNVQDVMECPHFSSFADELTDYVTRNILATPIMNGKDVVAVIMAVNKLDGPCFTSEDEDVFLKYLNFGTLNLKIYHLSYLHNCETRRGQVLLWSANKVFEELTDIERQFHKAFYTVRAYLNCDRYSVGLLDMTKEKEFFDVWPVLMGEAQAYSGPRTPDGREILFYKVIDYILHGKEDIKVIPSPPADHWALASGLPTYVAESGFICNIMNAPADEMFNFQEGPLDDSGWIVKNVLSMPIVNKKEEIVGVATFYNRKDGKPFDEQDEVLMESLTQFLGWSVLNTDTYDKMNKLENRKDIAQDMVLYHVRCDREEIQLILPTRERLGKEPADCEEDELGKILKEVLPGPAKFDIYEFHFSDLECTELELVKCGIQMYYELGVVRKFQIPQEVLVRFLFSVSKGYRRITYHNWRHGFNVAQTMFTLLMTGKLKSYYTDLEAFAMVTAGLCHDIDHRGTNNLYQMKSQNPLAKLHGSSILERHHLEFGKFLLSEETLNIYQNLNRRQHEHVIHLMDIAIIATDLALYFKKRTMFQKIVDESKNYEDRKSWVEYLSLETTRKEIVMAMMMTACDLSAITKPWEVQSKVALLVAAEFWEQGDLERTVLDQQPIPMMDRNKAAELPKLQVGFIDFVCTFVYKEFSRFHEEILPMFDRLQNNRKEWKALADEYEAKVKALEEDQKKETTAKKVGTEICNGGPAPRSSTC
The experiment in a line: activity titration.

Assay [2] has as its target T2, PDE6 (higher-affinity site) (Bos taurus, UniProt P11541).
T2 chain 1: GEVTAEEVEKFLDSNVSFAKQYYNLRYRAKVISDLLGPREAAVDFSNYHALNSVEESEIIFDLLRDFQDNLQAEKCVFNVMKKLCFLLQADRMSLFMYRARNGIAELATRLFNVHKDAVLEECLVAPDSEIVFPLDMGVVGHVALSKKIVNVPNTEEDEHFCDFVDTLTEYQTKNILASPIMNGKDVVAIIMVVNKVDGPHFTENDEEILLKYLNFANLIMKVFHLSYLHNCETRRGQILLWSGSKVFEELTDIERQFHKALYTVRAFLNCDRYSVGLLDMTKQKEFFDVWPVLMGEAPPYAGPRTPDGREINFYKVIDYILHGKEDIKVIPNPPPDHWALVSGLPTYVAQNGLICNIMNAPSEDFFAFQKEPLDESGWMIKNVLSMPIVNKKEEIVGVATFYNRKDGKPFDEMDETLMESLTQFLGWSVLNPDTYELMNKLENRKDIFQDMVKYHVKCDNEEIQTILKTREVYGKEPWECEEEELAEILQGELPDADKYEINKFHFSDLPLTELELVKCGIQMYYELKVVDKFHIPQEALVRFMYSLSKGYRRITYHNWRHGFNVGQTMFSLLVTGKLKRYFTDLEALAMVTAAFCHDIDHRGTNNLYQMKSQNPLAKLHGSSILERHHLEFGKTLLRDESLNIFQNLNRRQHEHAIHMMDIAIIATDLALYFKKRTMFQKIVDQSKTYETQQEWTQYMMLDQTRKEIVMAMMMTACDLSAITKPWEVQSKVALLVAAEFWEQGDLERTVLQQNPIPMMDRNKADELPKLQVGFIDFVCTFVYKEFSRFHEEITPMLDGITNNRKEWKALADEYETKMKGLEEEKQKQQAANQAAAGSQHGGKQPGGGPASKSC
T2 chain 2: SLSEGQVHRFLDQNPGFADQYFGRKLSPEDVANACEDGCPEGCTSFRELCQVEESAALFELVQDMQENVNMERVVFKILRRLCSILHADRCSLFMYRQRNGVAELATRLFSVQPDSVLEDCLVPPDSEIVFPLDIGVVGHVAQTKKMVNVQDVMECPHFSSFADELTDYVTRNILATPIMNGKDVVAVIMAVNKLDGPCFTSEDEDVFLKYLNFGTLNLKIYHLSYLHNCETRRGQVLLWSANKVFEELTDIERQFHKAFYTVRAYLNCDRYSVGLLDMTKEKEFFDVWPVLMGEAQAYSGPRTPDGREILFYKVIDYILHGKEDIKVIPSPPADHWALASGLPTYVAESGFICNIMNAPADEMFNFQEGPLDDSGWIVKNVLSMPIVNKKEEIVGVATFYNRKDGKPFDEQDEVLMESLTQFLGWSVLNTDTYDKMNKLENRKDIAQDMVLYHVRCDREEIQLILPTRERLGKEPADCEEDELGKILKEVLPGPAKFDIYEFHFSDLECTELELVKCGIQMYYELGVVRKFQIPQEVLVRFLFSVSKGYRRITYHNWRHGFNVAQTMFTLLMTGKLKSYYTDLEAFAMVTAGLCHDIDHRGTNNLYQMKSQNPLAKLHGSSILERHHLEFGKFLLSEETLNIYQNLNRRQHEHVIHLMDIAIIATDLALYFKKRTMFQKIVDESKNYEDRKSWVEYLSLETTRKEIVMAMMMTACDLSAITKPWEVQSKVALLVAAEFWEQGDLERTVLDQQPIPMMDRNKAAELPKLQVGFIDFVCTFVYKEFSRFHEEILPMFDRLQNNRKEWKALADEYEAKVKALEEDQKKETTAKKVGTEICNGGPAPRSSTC
The experiment in a line: activity titration.

B1: PrBP/δ (protein)
chain: MSAKDERAREILRGFKLNWMNLRDAETGKILWQGTEDLSVPGVEHEARVPKKILKCKAVSRELNFSSTEQMEKFRLEQKVYFKGQCLEEWFFEFGFVIPNSTNTWQSLIEAAPESQMMPASVLTGNVIIETKFFDDDLLVSTSRVRLFYV
The Kd is the free concentration of one partner at which half of the binding sites on the other are occupied at equilibrium, for simple one-to-one binding. A low value points to higher affinity. Take B1: the dissociation constant Kd in assay [1] is 700 nM; in assay [2], 40 nM.
